First the molecules themselves.
B3: carcinoembryonic antigen (CEA) immunopurified from LS174T colon carcinoma cell lysate (ligand, human, UniProt P06731 35-685, looked up)
chain: KLTIESTPFNVAEGKEVLLLVHNLPQHLFGYSWYKGERVDGNRQIIGYVIGTQQATPGPAYSGREIIYPNASLLIQNIIQNDTGFYTLHVIKSDLVNEEATGQFRVYPELPKPSISSNNSKPVEDKDAVAFTCEPETQDATYLWWVNNQSLPVSPRLQLSNGNRTLTLFNVTRNDTASYKCETQNPVSARRSDSVILNVLYGPDAPTISPLNTSYRSGENLNLSCHAASNPPAQYSWFVNGTFQQSTQELFIPNITVNNSGSYTCQAHNSDTGLNRTTVTTITVYAEPPKPFITSNNSNPVEDEDAVALTCEPEIQNTTYLWWVNNQSLPVSPRLQLSNDNRTLTLLSVTRNDVGPYECGIQNELSVDHSDPVILNVLYGPDDPTISPSYTYYRPGVNLSLSCHAASNPPAQYSWLIDGNIQQHTQELFISNITEKNSGLYTCQANNSASGHSRTTVKTITVSAELPKPSISSNNSKPVEDKDAVAFTCEPEAQNTTYLWWVNGQSLPVSPRLQLSNGNRTLTLFNVTRNDARAYVCGIQNSVSANRSDPVTLDVLYGPDTPIISPPDSSYLSGANLNLSCHSASNPSPQYSWRINGIPQQHTQVLFIAKITPNNNGTYACFVSNLATGRNNSIVKSITVSASGTSPGLSA
modifications: sialofucosylated (HECA-452-reactive) O-linked glycans
notes: mature; One entry for CEA from wild-type and from CD44-knockdown LS174T cells; Used as blot band or adsorbed on microspheres; also called CD66e; CEACAM5

Assay [1] addresses E-selectin-IgG Fc chimera (human) (UniProt P16581). As to the kind of experiment: flow-based adhesion assay, sialidase-treated against untreated PCLP-coated microbeads on 10 µg/ml E-selectin at 1 dyn/cm2.
Assay [2] concerns the target T1, CD66c immunopurified from LS174T colon carcinoma cell lysate (human, UniProt P40199 35-320).
T1 construct: mature; Blot band or adsorbed on microspheres
T1 sequence (looked up): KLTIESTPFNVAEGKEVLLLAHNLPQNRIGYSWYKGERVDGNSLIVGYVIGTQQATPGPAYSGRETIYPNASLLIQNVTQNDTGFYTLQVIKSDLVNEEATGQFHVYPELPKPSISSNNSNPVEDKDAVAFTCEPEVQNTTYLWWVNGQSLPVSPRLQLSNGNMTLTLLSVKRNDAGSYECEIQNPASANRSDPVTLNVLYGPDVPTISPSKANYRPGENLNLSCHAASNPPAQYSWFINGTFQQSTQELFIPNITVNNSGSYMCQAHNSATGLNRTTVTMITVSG
Put plainly: cell-free flow-based adhesion assay, CD66c-coated microspheres.

In assay [3] the target is B3. As to the kind of experiment: blot rolling assay with human peripheral blood lymphocytes at 0.5 dyn/cm2. From the text:
FIGS. 6A-6B provides the Western blot results from CD66e experiments. […] B: Selectin-dependent adhesion to SDS-PAGE resolved and blotted CEA immunoprecipitated from CD44-knockdown LS174T whole cell lysate. CHO-E cells, lymphocytes or CHO-P cells were perfused at the wall shear stress level of 0.5 dyn/cm² over SDS-PAGE immunoblots of immunopurified CD66e from whole cell lysate of CD44-knockdown LSI 74T cells. In select experiments, CHO-E cells and lymphocytes were pre-treated with an anti-E-selectin or an anti-L-selectin function blocking mAb (20 μg/ml), respectively, before use in blot rolling assays. The saturating concentration of the mAb (20 μg/ml) was maintained in the perfusion assays. Data represent the mean±S.E. of n≧3 experiments.
Fuhlbrigge et al., I 68 J. IMMUNOL. 5645-5651 (2002). The blots were placed under a parallel-plate flow chamber, and human peripheral blood lymphocytes or CHO transfectants, re-suspended at 5×10⁶ cells/ml in 90% D-PBS/I 0% glycerol, were perfused at the shear stress of 0.5 dyn/cm². Hanley et al., 20 FASEB J. 337-339 (2006); Napier et al., 282 J. BIOL. CHEM. 3433-3441 (2007); and Thomas et al., 283 J BIOL CHEM 15647-15655 (2008). Molecular weight markers were used as guides to aid placement of the flow chamber over stained bands of interest. […] Non-specific adhesion was assessed by perfusing 5 mM EDTA in the flow medium.

Assay [4] has as its target T2, P-selectin on CHO cells stably transfected with the phosphatidylinositol glycan-linked extracellular domain … (UniProt P16109 42-771, limits assumed, phosphatidylinositol glycan-linked).
T2 construct: extracellular domain; also called P-selectin-expressing CHO cells
T2 sequence (looked up): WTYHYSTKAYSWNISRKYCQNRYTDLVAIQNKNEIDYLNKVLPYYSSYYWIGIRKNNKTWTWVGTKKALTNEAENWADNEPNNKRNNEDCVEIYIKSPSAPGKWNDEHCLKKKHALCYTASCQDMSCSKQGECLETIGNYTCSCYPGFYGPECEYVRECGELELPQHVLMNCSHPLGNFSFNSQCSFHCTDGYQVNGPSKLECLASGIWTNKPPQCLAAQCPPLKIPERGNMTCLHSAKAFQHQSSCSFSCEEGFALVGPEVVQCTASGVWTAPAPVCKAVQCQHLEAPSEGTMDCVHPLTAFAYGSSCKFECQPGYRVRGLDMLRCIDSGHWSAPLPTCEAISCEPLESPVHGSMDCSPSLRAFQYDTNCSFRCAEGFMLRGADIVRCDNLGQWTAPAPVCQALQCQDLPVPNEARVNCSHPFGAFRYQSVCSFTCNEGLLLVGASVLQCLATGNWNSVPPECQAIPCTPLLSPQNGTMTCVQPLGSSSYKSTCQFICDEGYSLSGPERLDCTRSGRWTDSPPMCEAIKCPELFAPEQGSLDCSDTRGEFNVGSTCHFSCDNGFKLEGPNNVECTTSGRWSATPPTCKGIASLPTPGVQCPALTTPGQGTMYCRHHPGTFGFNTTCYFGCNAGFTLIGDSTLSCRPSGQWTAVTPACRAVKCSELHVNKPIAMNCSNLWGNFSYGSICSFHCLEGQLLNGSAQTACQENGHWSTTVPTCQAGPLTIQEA
As to the kind of experiment: blot rolling assay: CHO-P cells perfused at 0.5 dyn/cm2 over blot of immunopurified CEA. The procedure:
In select experiments, CHO-E cells and lymphocytes were pre-treated with an anti-E-selectin or an anti-L-selectin function blocking mAb (20 μg/ml), respectively, before use in blot rolling assays. The saturating concentration of the mAb (20 μg/ml) was maintained in the perfusion assays. Data represent the mean±S.E. of n≧3 experiments.
Fuhlbrigge et al., I 68 J. IMMUNOL. 5645-5651 (2002). The blots were placed under a parallel-plate flow chamber, and human peripheral blood lymphocytes or CHO transfectants, re-suspended at 5×10⁶ cells/ml in 90% D-PBS/I 0% glycerol, were perfused at the shear stress of 0.5 dyn/cm². Hanley et al., 20 FASEB J. 337-339 (2006); Napier et al., 282 J. BIOL. CHEM. […] Non-specific adhesion was assessed by perfusing 5 mM EDTA in the flow medium.
Although previous studies have reported that CEA and CEA-family members such as CD66c (Kuijpers, et al., 118(2) J CELL BIOL. 457-466 (1992)) bind E-selectin under static/no-flow conditions, the capacity of CEA to interact with E-selectin under physiologically relevant flow conditions as well as its potential cross-reactivity with L- and P-selectin have yet to be examined. […] The specificity of these adhesive interactions was assessed by incubating CHO-E cell suspensions or lymphocytes with an anti-E-selectin or an anti-L-selectin function-blocking mAb, respectively (FIG. 6B).

Assay [5] deals with B3. As to the kind of experiment: cell-free flow-based adhesion assay, CEA-coated microspheres. From the text: A cell-free flow-based adhesion assay (Hanley, et al., 20(2) FASEB J. 20(2), 337-339 (2006); Napier, et al., 282(6) J. BIOL. CHEM. 3433-3441 (2007)) was used to compare the adhesion of microspheres coated with CEA immunopurified from wildtype versus CD44-knockdown LS174T colon carcinoma cells to selectin substrates in shear flow. This technique allows quantitative comparisons of CEA-mediated adhesion to selectin substrates at prescribed CEA and selectin site densities under physiological flow conditions.
To test this hypothesis, the CEA-coated microspheres were perfused over purified selectin substrates under prescribed wall shear stress levels. As expected from blot rolling assays, microspheres coated with CEA from either cell type were capable of tethering and rolling over E- and L-, but not P-, selectin substrates, albeit with varying efficiencies (FIG. 8C-E). Most importantly, the extent of tethering of CD44-knockdown LS174T CEA-coated microspheres to E-selectin was lower than that of microspheres decorated with CEA from wildtype LS174T cells (FIG. 8C). […] In contrast, no difference was detected in either the extent of tethering (FIG. 8C) or the average rolling velocities (FIG. 8E) of microspheres coated with CEA from either cell type over L-selectin.

Consider “podocalyxin-like protein (PCLP) immunopurified from LS174T colon carcinoma cell lysate (from UniProt O00592 23-558) (ligand)”, for which, in assay [1], the reduction of binding after sialidase treatment came out at 80%.

B1: E-selectin-IgG Fc chimera (Fc fusion, human, UniProt P16581 22-301, looked up)
chain: WSYNTSTEAMTYDEASAYCQQRYTHLVAIQNKEEIEYLNSILSYSPSYYWIGIRKVNNVWVWVGTQKPLTEEAKNWAPGEPNNRQKDEDCVEIYIKREKDVGMWNDERCSKKKLALCYTAACTNTSCSGHGECVETINNYTCKCDPGFSGLKCEQIVNCTALESPEHGSLVCSHPLGNFSYNSSCSISCDRGYLPSSMETMQCMSSGEWSAPIPACNVVECDAVTNPANGFVECFQNPGSFPWNTTCTFDCEEGFELMGAQSLQCTSSGNWDNEKPTCKA
notes: domain: lectin, epidermal growth factor and consensus repeat domains; From Wyeth External Research; immobilised on dishes (10 µg/ml for microbeads, 0.75 µg/ml for cells); also called chimeric form of E-selectin-IgG Fc; not shown: human IgG1 (printed 'IgGi'); selectin domains linked to each arm of the IgG
As to B1, the binding result in assay [2] is “no binding”.

B2: L-selectin on human peripheral blood lymphocytes (receptor, UniProt P14151 39-372, looked up)
chain: WTYHYSEKPMNWQRARRFCRDNYTDLVAIQNKAEIEYLEKTLPFSRSYYWIGIRKIGGIWTWVGTNKSLTEEAENWGDGEPNNKKNKEDCVEIYIKRNKDAGKWNDDACHKLKAALCYTASCQPWSCSGHGECVEIINNYTCNCDVGYYGPQCQFVIQCEPLEAPELGTMDCTHPLGNFSFSSQCAFSCSEGTNLTGIEETTCGPFGNWSSPEPTCQVIQCEPLSAPDLGIMNCSHPLASFSFTSACTFICSEGTELIGKKKTICESSGIWSNPSPICQKLDKSFSMIKEGDYNPLFIPVAVMVTAFSGLAFIIWLARRLKKGKKSKRSMNDPY
notes: whole, on cells; also called Lymphocyte (L-selectin); L-selectin-expressing human peripheral blood lymphocytes
On to B2, for which the binding result in assay [3] is reported as “binds”.
In the case of B3, the binding result in assay [4] is listed as “no binding”.

B4: P-selectin-IgG Fc chimera (Fc fusion, human, UniProt P16109 42-321, looked up)
chain: WTYHYSTKAYSWNISRKYCQNRYTDLVAIQNKNEIDYLNKVLPYYSSYYWIGIRKNNKTWTWVGTKKALTNEAENWADNEPNNKRNNEDCVEIYIKSPSAPGKWNDEHCLKKKHALCYTASCQDMSCSKQGECLETIGNYTCSCYPGFYGPECEYVRECGELELPQHVLMNCSHPLGNFSFNSQCSFHCTDGYQVNGPSKLECLASGIWTNKPPQCLAAQCPPLKIPERGNMTCLHSAKAFQHQSSCSFSCEEGFALVGPEVVQCTASGVWTAPAPVCKA
notes: domain: lectin, epidermal growth factor and consensus repeat domains; From Wyeth External Research; immobilised on dishes; also called chimeric form of P-selectin-IgG Fc; not shown: human IgG1 (printed 'IgGi'); selectin domains linked to each arm of the IgG
In the case of B4, in assay [5], the binding result is on record as “no binding (tested: 10 µg/ml P-selectin coating)”.
